In the DeepSol protein solubility set:

Test: soluble on expression in E. coli; label from the status in PepcDB or PDB records

Sequence	soluble on expression in E. coli
MAATVDTMSEEVKRLIALYELTPHPASGGWFRETYRSDVQVEAEGFDGKRSVLTMIYYLMQAGQPDPFHRVKSDETFVHNLGGSMKIHMIHPDGSYSCSILGNPLEHPEARHQVVVPRRVWFAQEVDGYCLASVLVAPGFDFKDFSLGKREELIKEYPQHRDVIMRCTSSDP	soluble
MAHHHHNSGPLEFTVSANTNPATDAVRESILANPGFGKYYTDHMVSIDYTVDEGWHNAQVIPYGPIQLDPSAIVLHYGQEIFEGLKAYRWADGSIVSFRPEANAARLQSSARRLAIPELPEEVFIESLRQLIAVDEKWVPPAGGEESLYLRPFVIATEPGLGVRPSNEYRYLLIASPAGAYFKGGIKPVSVWLSHEYVRASPGGTGAAKFGGNYAASLLAQAQAAEMGCDQVVWLDAIERRYVEEMGGMNLFFVFGSGGSARLVTPELSGSLLPGITRDSLLQLATDAGFAVEERKIDVDEWQKKAGAGEITEVFACGTAAVITPVSHVKHHDGEFTIADGQPGEITMALRDTLTGIQRGTFADTHGWMARLN	soluble
MGSDKIHHHHHHVYTSFYGFKAKPFQLSPDPSFFFGSKGHNRAMAYLEYGLAQAEGFIVVTGEVGAGKTTLVRNLFRQLEPEKIVAAQIVNTSLDSDDTLRMVAAAFGLPLAQGNPGKTPVLVALEKFFRQCEQQGKRALLVVDEAQNLSPQTVEELRMLSNFQGDNKSLLQTFLLGQPEFRKTLLGNDMQQLRQRITATYHLGPMDRAETKSYIEHRLKTVGWGGNPGFDEEAFDAIHQYTGGIPRRINALCDRLLLMGYLEKLQHFGVSEVNEVIRDIQQEFDAVEVEAGLLSGDKTSPLKEEQFAIGLEEMSNRIAKLEETVVSLMGLLKQILSLADVNKRLR	not soluble
MIEFDNLTYLHGKPQGTGLLKANPEDFVVVEDLGFEPDGEGEHILVRILKNGCNTRFVADALAKFLKIHSREVSFAGQKDKHAVTEQWLCARVPGKEMPDLSAFQLEGCQVLEYARHKRKLRLGALKGNAFTLVLREVSNRDDVEQRLIDICVKGVPNYFGAQRFGIGGSNLQGALRWAQTNTPVRDRNKRSFWLSAARSALFNQIVAERLKKADVNQVVDGDALQLAGRGSWFVATTEELAELQRRVNDKELMITAALPGSGEWGTQREALAFEQAAVAAETELQALLVREKVEAARRAMLLYPQQLSWNWWDDVTVEIRFWLPAGSFATSVVRELINTTGDYAHIAELEHHHHHH	soluble
MATPASGALLQQMNLASQSLNYELSFISINKQGVESLRYRHARLDNRPLAQLLQMDGPRREVVQRGNEISYFEPGLEPFTLNGDYIVDSLPSLIYTDFKRLSPYYDFISVGRTRIADRLCEVIRVVARDGTRYSYIVWMDTESKLPMRVDLLDRDGETLEQFRVIAFNVNQDISSSMQTLAKANLPPLLSVPVGEKAKFSWTPTWLPQGFSEVSSSRRPLPTMDNMPIESRLYSDGLFSFSVNVNRATPSSTDQMLRTGRRTVSTSVRDNAEITIVGELPPQTAKRIAENIKFGAAQHHHHHH	soluble
MIKTVVGSYPVVKGKPDSIPDKIKKFFGKYDKYEYSIKKALDDQLNVGIDILSDGQVRGDMVEIFVSNMYGFEGRRVVNRVEFVKPITLNDIKYSLKYISKKDPEKGVKGIITGACTLASSIRVENYYSDNKDENLIYDLAGALNKEALSIQNHVKMIQFDEPILSTGLYDLEVAKKAMDIITSGINVPVAMHVCGDVSKIFYKLNEFNVDILDHEFASCRKNLEILNEITKKVGFGCINTKLKSVDSVDEVKALISEGIEILKNNSKFEGSINDSVIIDPDCGMRLLPVDVAYSKLNNMVTAANEIEKDLILEHHHHHH	not soluble
GDYERILYELEGMYQFGKRSHLDISAFSIASGVGYQLPLPMNPQFWLRYDFASGDKNHRDGRSNTFNQLFPFGHYYFGYIDQVGRQNIHDFNAQFTLHPQPWVTFLGQYHRFYLANKRDYLYNAAGAGTIRDITGQSGSHVGDEIDFTINFHLSRHQDVLLGYSKLFTGEFLKNTRPGVSPDLFYAQYNFRF	not soluble
MCMGGINDNLVRFVYKYKIKMKRERSAMNIEYMNQKVEFSLVRKERKSIKISVNRDFTIEVIAPFNVAEEEIKNVVYKKMKWIIKQMKRMENIIDINEEIKYSDGDAFYIFGTPYRLIVKKGIKNKMRIFGENVYMYIKEKDNYEYKKNYAEKWYKKIAAIELEYLYNEKYKIFDEIYDEKPKLIRKMKSKWGSYSPADNKVVLNTQLVKIPKTCIEYVIIHELCHVKFRNHRKEFYNYVNNFMPDWKLKKESLDRYVNVLEHHHHHH	not soluble
GQPMNVTLQDDTQTLQEVVVTALGMKRATKALGYAVTEIKSDELNSNVVNPVSALQGKVAGVEISAGDGGLFGSSKILIRGASTLGSNNQPIYVVDGVILDNAIKNGDADWAANDTDWGNELKNLNPDDFESVSVLKGAAATALYGSRGLNGAVVITTKSGKGKK	not soluble
MLREVVHRFGESDFTFLSVLDSYALLDRIDPAAFVKDEQMPYWAEIWPAAVTLSRQIVETGELAGKSVLELGAGVGMASIAAARSGARVLCTDYSTEALRFVAYNAMKNRVPLDTARLDWRMVKGAEKFDAVIAADVLYERVNLLPIVTAIDALLAPGGAAYIADPRRRLADQFLELVHENGFEVAETRMFDAEGDQTVAVTIYKLQRLKALEHHHHHH	not soluble
MVSKKKALEMIDVIANMFPDAECELKHDNPFELTIAVLLSAQCTDVLVNRVTTELFKKYKTPEDYLAVSDEELMNDIRSIGLYRNKAKNIKKLCQSLIDQFNGEIPQTHKELESLAGVGRKTANVVMSVAFDEPSLAVDTHVERVSKRLGINRWKDNVRQVEDRLCSVIPRDRWNRSHHQLIFFGRYHCLARKPKCDICPLLEDCREGQKRYKASLKEA	not soluble
MYSDKVFDHFQNPRNVGKIEDADGVGTVGNPVCGDLMTIYIKVKDNRIEDIKFQTFGCAAAIATSSMATEMAKGKTIEEALKITRDAVAEALGGLPKQKMHCSNLAADALRRAIVDYFRKNGKIDKIKELGLEKELEKMEKGEMDDHGEYCEA	not soluble
MGSDKIHHHHHHMHLGKINEDVFNKVIYPHLGERRKEVVVGPQHGVDTGAIDLQDGRVLVVKTDPVFIVPQFGFKKAAWFAVHILASDVMTSGIPPEYAVIDLNLPPRIKDEEFEEMWIGIHEALKEIGVMVVGGHTGVYEGTDYPMVGGFTMFGIGEKERLGMPSKVKVGDSVIMTKGPAIEATGLLTNLYPEYFKQRLSNEIFNEAYNMYWKMSCWKDGLIASRIGIHMMHDATEGGVFGALTEVARASSKGMRIYEERFFINRAVREVTKLVNIDPWISISEGTMIIVTDKGEEVRNTLIREGIEAEIIGEIVDQSGEVTMVKKDGSRVKIEHPLEDPFWRAFFDLASKT	not soluble
MKILGISGSPRKEGTHFAVNYALDYLKEKGFETKYISVFQKKIEFCIHCDYCLRTKEGCVHKDSMQEIYNGLKWADAVILGSPCYNGTVSGQLKTIMDRCRAIFAEDIDVLRNKYGMALSVGGDRNGGQEVVLKTIHDFYILNGVIPVSGGSFGSNLGATFWSQDNGKKGVEEDTEGIRTLKRTLKKFYNCLNEEGELEHHHHHH	not soluble
MNIAELYGKMGKHSWRIMDAIFKNLWDYEYVPLQLISSHARIGEEKARNILKYLSDLRVVQNRQKDYEGSTFTFIGLSLYSLHRLVRSGKVDAIGKLMGEGKESAVFNCYSEKFGECVVKFHKVGHTSFKKVKEKRDYGDLHFSVLAIRSARNEFRALQKLQGLAVPKVYAWEGNAVLMELIDAKELYRVRVENPDEVLDMILEEVAKFYHRGIVHGDLSQYNVLVSEEGIWIIDFPQSVEVGEEGWREILERDVRNIITYFSRTYRTEKDINSAIDRILQE	soluble
MKANRWFGMAQPKSGKMNMNILHQEELIAQKKREIEARMEQKARQSHVPSPQPPHPGEIADAHNSCISNKFANDGSFLQQFLKLQKAQTSTDSAPRAPPSMPTPSSLKKPLVLSKRTGLGLSSPTGPVKNYSHAKQLPVAHRPSVFQSPDDDEEEDYEQWLEIKVSPPEGAETRRVIEKLARFVAEGGPELEKVAMEDYKDNPAFTFLHDKNSREFLYYRRKVAEIRKEAQKPQAATQKVSPPEDEEAKNLAEKLARFIADGGPEVETIALQNNRENQAFSFLYDPNSQGYRYYRQKLDEFRKAKAGSTGSFPAPAPNPSLRRKSAPEALSGAVPPITACPTPVAPAPAVNPTPSIPGKPTATAAVKRKRKSRWGPEEDKVEFHLLNWHRGT	soluble
MGSDKIHHHHHHMARTTDRQRNTRSPRQARRQLNKLLRDPIVKPHNAAAVRIRLDEMMAILQHREYRPEQPSSTNQVNTHGQVQFDLARWYPEGGRLRYTLRPRGALLPIAFTVQDFGNHRKSLTRGLALAVAGAAHQLDQMKAANKLPLIMQPFSDWVHLLAIGLQNWLENGQVVFSLADLNGAYVLTSMPTAPATWLARLFGISLGNPDQSLTDLRRQRQEQADRLTTRLAAKFAIEEAPLVQAANDRAAKSIQLDAATMATLASDQAPLRSQKDVVDRLARGDYIVIDTEFVADRNQLDLTEISLLRVRHHQVDGAFDIFTQLPEDHHVMPFSVKITGITDDLLSQYGQPLPLAKAAVEQLLKHELVVGFALSNDLRALRAGLNVDITPVQAFDVAALARKTFGIGKKHTPSLQHYKEALGVDLPSHTALSDAQTTMALLEHLIWEGSPLITKDIGFEQRPPEHANDPEPYQKPDPSTS	not soluble
LPIQARPRRNRKNRAVRQLVQENLVKPSSLIYPLFVHDEETSVPIPSMPGQSRLSMEDLLKEVGEARSYGIKAFMLFPKVDDELKSVMAEESYNPDGLLPRAIMALKEAFPDVLLLADVALDPYSSMGHDGVVDEQSGKIVNDLTVHQLCKQAITLARAGADMVCPSDMMDGRVSAIRESLDMEGCTDTSILAYSCKYASSFYGPFRDALDSHMVGGTDKKTYQMDPSNSREAEREAEADASEGADMLMVKPGLPYLDVLAKIREKSKLPMVAYHVSGEYAMLKAAAEKGYISEKDTVLEVLKSFRRAGADAVATYYAKEAAKWMVEDMKGTQKFTEPCY	soluble
APADKPQVLASFTQTSASSQNAWLAANRNQSAWAAYEFDWSTDLCTQAPDNPFGFPFNTACARHDFGYRNYKAAGSFDANKSRIDSAFYEDMKRVCTGYTGEKNTACNSTAWTYYQAVKIFG	soluble
MKIEEEFISASVNPRSHCLTACKTAPLVAYASSLQIAVQTIPKDDSEVGVIKSTSERRHQKPITVLKRLKSSEIVADEFVTGGVDSRVVLWKLRGEHVEYVADLTGCDGSVGSVCGCVEDGRKVVAAAWVSETSNGFHAWWTSSIGDLLNSTEIKLDHKAFALCLDAISIQNSVLLAVGTSKRFVELYGESADKKSFSRLISVAGHTDWIHSIAFNDNPDHLLVASAGQDTYVRLWAIEPETDEKSENIREDSSTTPPDELTSSANLFSINYTPYRCSSHAVMQGHDDWVHSTVWSNDGRVLLTASSDKTCIIWKEIDNLWRDDVRLGIVGGGQAAGFFAAVFSSSLDLKDSGEKNAENVVISSSYFGGLHCWKSTDEQKTFWTALPMTGGHVGEVRDVDWHRSDDGDSGFLMSVGQDQTTRVFAKNGRQQSYVEIARPQVHGHDMQCLSFVNPSIFVSGAEEKVFRAFRAPKSFVKSLEAISGVPTEKSFGDSDLAEFGACVPALGLSNKPMVEGETVDGEHWEEDAFRAAPVVLTSPPTEDTLQQNTLWPEQHKLYGHGYEVYAVTANPTGNVLATACKSSHVEHSVVMLWSTSNWSKKSEIIGHQLTVTQIAWNPSGTRLLTVSRDRTAKLYTEKNGEVDGFDYDCVWTSGKQHTRIIWACDWIDDEHFVTASRDQKVIVWAESAGQTAPKATVKLDEPVTAIAAVSKDVIVAGLQTGELIVLRFDSEGLHVIEKIGANRIPIDSAVLRLRFSKNGRKLAVATTDAKLRIFNVSQ	not soluble
